Assay [1] addresses CPXV ortholog of H5 (cowpox virus). The experiment in a line: lysate ELISA. On the technique in general: In an ELISA, binding on a coated surface is turned into a signal by an enzyme label.
The target in assay [2] is MPXV ortholog of H5 (monkeypox virus). The experiment in a line: lysate ELISA.
Assay [3] has as its target VACV H5 protein (vaccinia virus). The experiment in a line: lysate ELISA.
Assay [4] concerns the target VACV A21 protein (vaccinia virus). Briefly: purified antigen ELISA.

B1: VACV-308 (antibody, V domains shown)
VH: QVQLVQSGAEVKKPGSSVKVSCKGSGDSFRSYAISWVRQAPGQGLEWMGGIIPRFGTTNYAQKFQDRVTITADKSTTTAYMELRSLKCEDTGVYYCARPQSAYDFGPFDHWGQGTLVTVSS
VL: SYELTQPPSLSVAPGKTARITCGGDNIGSKGVHWYQQKPGQAPVVVISYDSDRPSGIPERFSGSNSGDTATLTISRVEAGDEADYYCHVWHTTTDHYVFGTGTKVTVL
What is called EC50 is the concentration giving half of the maximal effect. A higher EC50 goes with weaker potency. On to B1, for which the EC50 turned out to be 2 ng/mL in assay [1], 3 ng/mL in assay [2] and 6 ng/mL in assay [3].

B2: VACV-318 (antibody, V domains shown)
VH: SYELTQPPSVSVSPGQTARITCSGDELPKRYAYWYQQKSGQAPVLVIYEDTKRPSGIPERFSGSSSGTVATLTISGAQVDDEADYYCYSTDSTSNHKRVFGGGTQVTVL
V domain: QVQLVESGGGVVQPGRSLRLSCTASGFNFSYYGIHWVRQAPGKGLQWVALISYDGSDKYYADSVKGRFTVSRDYSKNTLFLQMNSLRGDDTAVYYCQMVKVPFYFWGQGTMVTLSS
For B2, the EC50 in assay [4] worked out at 1300 ng/mL.
